Test results reported in US20240400703A1 (Genmab, published 2024).

T1: human OX40 expressed on cells (human, UniProt P43489 29-277)
T1 construct: also called CD134; TNFRSF4
T1 sequence: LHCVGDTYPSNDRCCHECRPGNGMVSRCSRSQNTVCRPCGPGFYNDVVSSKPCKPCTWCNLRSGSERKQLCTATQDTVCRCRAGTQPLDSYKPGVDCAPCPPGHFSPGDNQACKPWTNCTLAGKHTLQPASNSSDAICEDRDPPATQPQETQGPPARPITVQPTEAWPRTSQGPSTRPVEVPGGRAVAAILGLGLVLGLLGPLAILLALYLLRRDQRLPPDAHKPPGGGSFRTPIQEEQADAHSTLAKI

T2: mouse OX40 expressed on ExpiCHO-S cells (mouse, UniProt P47741 20-272)
T2 construct: full-length entry; also called OX40mm; wild-type mouse OX40
T2 sequence: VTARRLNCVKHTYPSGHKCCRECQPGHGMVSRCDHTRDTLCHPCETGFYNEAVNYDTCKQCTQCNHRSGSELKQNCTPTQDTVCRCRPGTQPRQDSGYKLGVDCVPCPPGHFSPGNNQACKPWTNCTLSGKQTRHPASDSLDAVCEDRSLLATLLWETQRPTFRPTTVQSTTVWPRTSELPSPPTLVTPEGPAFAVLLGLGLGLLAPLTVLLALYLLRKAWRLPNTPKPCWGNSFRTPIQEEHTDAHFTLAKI


Columns and labels:
[1] = molecular target: T3, human FcγRIa expressed on cells (human, UniProt P12314 16-374); experiment: flow cytometry, FcγRIa-transfected ExpiCHO-S cells, gMFI (PE)
T3 construct: whole, on cells; also called FcγR1a; CD64
Protocol: Data were analyzed using FlowJo software and were visualized using GraphPad Prism.

[2] = molecular target: T1, human OX40 expressed on cells; experiment: flow cytometry, activated human CD8+ T cells, donor 1
Protocol: Healthy human donor PBMCs were purified essentially as described in Example 7. The cell concentration was adjusted to 2×10⁶ cells per mL (final concentration) in assay medium and plated in 6-well plates (Greiner, cat. no. 657160). PBMCs were stimulated with 0.3 μg/mL anti-CD3 ([…] Technologies, cat. no. 60011) and 0.5 μg/mL anti-CD28 antibodies (BioLegend, cat. no. 302934) and cultured for two days at 37° C., 5% CO₂. Next, the PBMCs were harvested, counted and brought to a concentration of 2×10⁶ cells per mL in FACS buffer 1 (DPBS with 2% heat-inactivated FBS and 2 mM ethylenediaminetetraacetic acid [EDTA]). […] After 60 min at RT, the cells were prepared for flow cytometric analyses. To this end, the cells were washed twice with 150 μL FACS buffer 1 and 30 μL/well cell-surface antibody mix (Table 9) in FACS buffer 1 containing antibody against human Fcγ antibody (Table 9) and fixable viability dye eFluor780 (1:1,500) was added. The staining procedures were carried out at 4° C. for 15-20 min protected from light. Stained cells were washed twice with 120-150 μL FACS buffer 1 (5 min, 460×g, RT) and resuspended in 60-100 μL FACS buffer 1 for direct flow cytometric analyses. Flow cytometric data were acquired on a FACSymphony A3 and analyzed with FlowJo software.

[3] = molecular target: T1, human OX40 expressed on cells; experiment: flow cytometry, activated human CD4+ T cells, donor 1
[4] = molecular target: T1, human OX40 expressed on cells; experiment: flow cytometry, loss of sOX40L (2 µg/mL) binding to activated human CD4+ T cells; competitor sOX40L; unit taken from the upper half of the table
Protocol: (§1) Stimulated PBMCs were pelleted, resuspended in FACS buffer 2 (DPBS with 2% heat-inactivated FBS [Sigma-Aldrich, cat. no. F7524] and 2 mM EDTA [Sigma-Aldrich, cat. no. 03690]), and seeded (100,000 cells/well) in round-bottom 96-well plates (VWR International GmbH, cat. no. 734-197). […] Next, cells were washed twice in FACS buffer, and incubated with 30 μL of the antibody panel described in Table 11 diluted in FACS buffer 2 containing 1:1,500 Fixable Viability Stain eFluor 780 at 4° C. for 20 min, protected from light. The cells were subsequently washed twice with 120-150 μL FACS buffer 2 and measured on a BD FACSCelesta flow cytometer using a BD High Throughput sampler and subsequent analysis was done using FlowJo software.

[5] = molecular target: T1, human OX40 expressed on cells; experiment: flow cytometry, loss of sOX40L (2 µg/mL) binding to activated human CD8+ T cells; competitor sOX40L; unit taken from the upper half of the table
Protocol: as §1

[6] = molecular target: T2, mouse OX40 expressed on ExpiCHO-S cells; experiment: flow cytometry, transfected ExpiCHO-S cells, gMFI (PE)
[7] = molecular target: T1, human OX40 expressed on cells; experiment: flow cytometry, human T cells activated 72 h with anti-CD3/CD28 beads

T3 sequence (P12314 16-374): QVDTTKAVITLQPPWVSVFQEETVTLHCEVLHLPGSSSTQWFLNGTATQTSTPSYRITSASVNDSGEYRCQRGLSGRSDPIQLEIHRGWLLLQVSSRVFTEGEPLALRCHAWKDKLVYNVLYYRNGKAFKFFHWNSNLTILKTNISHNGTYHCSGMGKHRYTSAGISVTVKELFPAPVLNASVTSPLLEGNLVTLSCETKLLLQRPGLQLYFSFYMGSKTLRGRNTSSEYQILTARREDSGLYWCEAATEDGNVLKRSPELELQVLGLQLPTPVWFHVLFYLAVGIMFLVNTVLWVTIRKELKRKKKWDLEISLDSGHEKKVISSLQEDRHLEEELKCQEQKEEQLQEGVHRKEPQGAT

binding result [1]	EC50 [2]	EC50 [3]	IC50 [4]	IC50 [5]	binding result [6]	EC50 (read off the curve) [7]	Binder
binds	–	–	–	–	–	–	IgG1-CD134-003 (antibody, rabbit-human chimeric IgG1, wild-type Fc; also called parental chimeric antibody) heavy: not shown light: AAVLTQTPSPVSAAVGGTVTIKCQSSQIVVNNNFLSWYQQKPGQPPKLLIYDASNLASGVPDRFSGSGSGTQFTLTISGVQSDDAATYYCLGGYDDDAENAFGGGTEVVVQRTVAAPSVFIFPPSDEQLKSGTASVVCLLNNFYPREAKVQWKVDNALQSGNSQESVTEQDSKDSTYSLSSTLTLSKADYEKHKVYACEVTHQGLSSPVTKSFNRGEC
–	0.0329 mg/L	0.0273 mg/L	0.579 nM	0.561 nM	no binding (tested: 50 µg/mL)	~0.02 mg/L	IgG1-CD134-003-HC6LC2-P329R-E345R (antibody, humanized; human IgG1 with P329R and E345R (Eu numbering), kappa; also called IgG1-CD134-003-HC6LC2-RR) heavy: not shown light: AAVLTQSPSSLSASVGDRVTITCQSSQIVVNNNFLSWYQQKPGKAPKLLIYDASNLASGVPDRFSGSGSGTDFTFTISSLQPEDIATYYCLGGYDDDAENAFGGGTKVEIKRTVAAPSVFIFPPSDEQLKSGTASVVCLLNNFYPREAKVQWKVDNALQSGNSQESVTEQDSKDSTYSLSSTLTLSKADYEKHKVYACEVTHQGLSSPVTKSFNRGEC
